To fix the notation:
B1: SEQ ID NO: 43 (VHH)
chain: DVQLVESGGGLVQPGGSLRLSCAASGFILDYYAIGWFRQAPGKEREGVLCIDASDDITYYADSVKGRFTISRDNSKNTVYLQMNSLRPEDTAVYYCATPIGLSSSCLLEYDYDYWGQGTLVTVSSGGGGSGGGSEVQLLESGGGLVQPGGSLRLSCAASGFTFRSFGMSWVRQAPGKGPEWVSSISGSGSDTLYADSVKGRFTISRDNSKNTLYLQMNSLRPEDTAVYYCTIGGSLSRSSQGTLVTVSSA
B2: SEQ ID NO: 45 (VHH)
VHH: EVQLVESGGGLVQAGGSLRLSCAASRSIGRLDRMGWYRHRTGEPRELVATITGGSSINYGDFVKGRFTISIDNAKNTVYLQMNNLKPEDTAVYYCNFNKYVTSRDTWGQGTQVTVSS
B3: SEQ ID NO: 66 (VHH)
VHH: EVQLVESGGGSVQPGGSLRLSCAASRSIGRLDRMGWYRHRPGEPRELVATITGGSSINYGDSVKGRFTISIDNSKNTVYLQMNSLRPEDTAVYYCNFNKYVTSRDTWGQGTLVTVSS
B4: SEQ ID NO: 82 (VHH)
VHH: EVQLVESGGGLVQPGGSLRLSCAASRSIGRLDRMGWYRHRPGEPRELVATITGGSSINYGDSVKGRFTISIDNSKNTVYLQMNSLRAEDTAVYYCNFNKYVTSRDTWGQGTLVTVSS
B5: SEQ ID NO: 78 (VHH)
VHH: EVQLVESGGGLVRPGGSLRLSCAASRSIGRLDRMGWYRHRPGEPRELVATITGGSSINYGDSVKGRFTISIDNSKNTVYLQMNSLRPEDTAVYYCNFNKYVTSRDTWGQGTLVTVSS
B6: SEQ ID NO: 87 (VHH)
VHH: EVQLVESGGGSVQPGGSLRLSCAASRSIGRLDRMGWYRHRPGEPRELVATITGGSSINYGDSVKGRFTISIDNSKNTVYLQMNSLRPEDTAVYYCNFNKYVTSRDTWGQGTLVTVGG
B7: SEQ ID NO: 71 (VHH)
VHH: EVQLVESGGGLVQPGGSLRLSCAASRSIGRLDRMGWYRHRPGEPRELVATITGGSSINYGDSVKGRFTISIDNSKNTVYLQMNSLRPEDTAVYYCNFNKYVTSRDTWGQGTLVTVSG
B8: SEQ ID NO: 70 (VHH)
VHH: EVQLVESGGGLVQPGGSLRLSCAASRSIGRLDRMGWYRHRPGEPRELVATITGGSSINYGDSVKGRFTISIDNSKNTVYLQMNSLRPEDTAVYYCNFNKYVTSRDTWGQGTLVQVSS
B9: SEQ ID NO: 65 (VHH)
VHH: EVQLVESGGGLVQAGGSLRLSCAASRSIGRLDRMGWYRHRPGEPRELVATITGGSSINYGDSVKGRFTISIDNSKNTVYLQMNSLRPEDTAVYYCNFNKYVTSRDTWGQGTLVTVSS
B10: SEQ ID NO: 80 (VHH)
VHH: EVQLVESGGGLVQPGGSLRLSCAASRSIGRLDRMGWYRHRPGEPRELVATITGGSSINYGDSVKGRFTISIDNSKNTVYLQMNSLRPEDTAVYYCNFNKYVTSRDTWGQGTLVQVGG
B11: SEQ ID NO: 89 (VHH)
VHH: EVQLVESGGGSVQAGGSLRLSCAASRSIGRLDRMGWYRHRPGEPRELVATITGGSSINYGDSVKGRFTISIDNSKNTVYLQMNSLRPEDTAVYYCNFNKYVTSRDTWGQGTLVQVGG
B12: SEQ ID NO: 68 (VHH)
VHH: EVQLVESGGGLVQAGGSLRLSCAASRSIGRLDRMGWYRHRPGEPRELVATITGGSSINYGDSVKGRFTISIDNSKNTVYLQMNSLRPEDTAVYYCNFNKYVTSRDTWGQGTQVTVSS
B13: SEQ ID NO: 83 (VHH)
VHH: EVQLVESGGGLVQPGGSLRLSCAASRSIGRLDRMGWYRHRPGEPRELVATITGGSSINYGDSVKGRFTISIDNSKNTVYLQMNSLRPEDAAVYYCNFNKYVTSRDTWGQGTLVTVSS
B14: SEQ ID NO: 81 (VHH)
VHH: EVQLVESGGGVVQPGGSLRLSCAASRSIGRLDRMGWYRHRPGEPRELVATITGGSSINYGDSVKGRFTISIDNSKNTVYLQMNSLRPEDTAVYYCNFNKYVTSRDTWGQGTLVTVSS
B15: SEQ ID NO: 69 (VHH)
VHH: EVQLVESGGGLVQPGGSLRLSCAASRSIGRLDRMGWYRHRPGEPRELVATITGGSSINYGDSVKGRFTISIDNSKNTVYLQMNSLRPEDTAVYYCNFNKYVTSRDTWGQGTQVTVSS
B16: SEQ ID NO: 84 (VHH)
VHH: EVQLVESGGGLVQPGGSLRLSCAASRSIGRLDRMGWYRHRPGEPRELVATITGGSSINYGDSVKGRFTISIDNSKNTVYLQMNSLRPEDTAVYYCNFNKYVTSRDTWGQGTLVTVGS
B17: SEQ ID NO: 67 (VHH)
VHH: EVQLVESGGGLVQPGGSLRLSCAASRSIGRLDRMGWYRHRPGEPRELVATITGGSSINYGDSVKGRFTISIDNSKNTVYLQMNSLKPEDTAVYYCNFNKYVTSRDTWGQGTLVTVSS
B18: SEQ ID NO: 49 (VHH)
VHH: EVQLLESGGGLVQPGGSLRLSCAASGLPFSTKSMGWFRQAPGKGREFVSRISPGGTSRYYGDFVKGRFTISRDNSKNTLYLQMNSLRAEDTAVYYCASGERSTYIGSNYYRTNEYDYWGQGTLVTVSS
B19: SEQ ID NO: 85 (VHH)
VHH: EVQLVESGGGSVQPGGSLRLSCAASRSIGRLDRMGWYRHRPGEPRELVATITGGSSINYGDSVKGRFTISIDNSKNTVYLQMNSLRPEDTAVYYCNFNKYVTSRDTWGQGTLVQVGG
B20: SEQ ID NO: 47 (VHH)
VHH: EVQLVESGGGLVQPGGSLRLSCAASGSVFKINVMAWYRQAPGKGRELVAGIISGGSTSYADSVKGRFTISRDNAKNTLYLQMNSLRPEDTAVYYCAFITTESDYDLGRRYWGQGTLVTVSS
B21: SEQ ID NO: 48 (VHH)
VHH: EVQLVESGGGLVQPGGSLRLSCIASGLPFSTKSMGWFRQAPGKEREFVARISPGGTSRYYGDFVKGRFAISRDNAKNTTWLQMNSLKAEDTAVYYCASGERSTYIGSNYYRTNEYDYWGTGTQVTVSS

The target in the test is monoclonal antibody 21-4-3. Put plainly: SPR, captured 21-4-3, 500 nM; % of Fig. 9 reference. In general terms: Surface plasmon resonance follows binding to a sensor surface in real time, without labels.
Chain of monoclonal antibody 21-4-3 (VH, as listed by the source, form in doubt, chain 1 of 2): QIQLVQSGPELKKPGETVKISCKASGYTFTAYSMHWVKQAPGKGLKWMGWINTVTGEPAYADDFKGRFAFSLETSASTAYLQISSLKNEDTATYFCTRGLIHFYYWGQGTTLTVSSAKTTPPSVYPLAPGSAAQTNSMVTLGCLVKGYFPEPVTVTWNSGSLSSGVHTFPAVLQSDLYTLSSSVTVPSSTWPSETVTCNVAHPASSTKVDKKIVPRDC
Chain of monoclonal antibody 21-4-3 (VL, as listed by the source, form in doubt, chain 2 of 2): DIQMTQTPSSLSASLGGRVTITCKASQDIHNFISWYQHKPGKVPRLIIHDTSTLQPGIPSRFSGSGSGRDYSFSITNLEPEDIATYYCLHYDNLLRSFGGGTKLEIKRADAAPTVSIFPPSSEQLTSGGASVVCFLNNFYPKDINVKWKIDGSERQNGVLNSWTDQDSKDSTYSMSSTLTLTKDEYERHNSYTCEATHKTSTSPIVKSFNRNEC
Molecule B1 had a binding of 21-4-3, % of Reference Sequence of 3%. The same measure for B2: 22%; for B3: 48%; for B4: 56%.

In turn, B5 yielded a binding of 21-4-3, % of Reference Sequence of 1%.

Consider B6, for which the binding of 21-4-3, % of Reference Sequence was 41%. Then B7, with 44%; and B8, with 106%; and B9, with 23%. Then B10, with 51%.

Molecule B11 registered a binding of 21-4-3, % of Reference Sequence of 2%.

The molecule B12 showed a binding of 21-4-3, % of Reference Sequence of 26%. The same measure for B13: 79%. The molecule B14 returned a binding of 21-4-3, % of Reference Sequence of 75%. Then B15, with 106%; and B16, with 91%; and B17, with 101%. The same measure for B18: 4%; for B19: 32%. The same measure for B20: 4%; for B21: 3%.

The record behind these values is patent EP2974737A1.
